# Results published in patent US20240293570A1 (priority 2021, published 2024).
# Read-outs that look alike come from different tables or passages of the source.
# What was measured:
# [1] = Polymer (high molecular component) content of antibody-drug conjugates by SE-HPLC; assay type: physicochemical; conditions: ADC with Her2 antibody
# Description: (§1) Polymers (high molecular components) of the antibody-drug conjugates were tested using molecular exclusion high-performance liquid chromatography (SE-HPLC). A Biocore SEC chromatographic column (7.8×300 mm, […]) was used, and the mobile phase was 50 mM phosphate containing 300 mM sodium chloride (pH 6.8), with a flow rate of 0.5 mL/min. Samples of […] and 10 μl were injected. […] The polymer content of an antibody-drug conjugate was calculated using an area normalization method.
# [2] = Naked antibody content of antibody-drug conjugates by hydrophobic interaction chromatography (HIC); assay type: physicochemical; conditions: ADC with Her2 antibody
# Description: The content of naked antibodies in the antibody-drug conjugate was tested using hydrophobic interaction chromatography (HIC). A Biocore HIC-Butyl chromatographic column (4.6×150 mm, 5 μm) was used. The mobile phase A was a 100 mM phosphate aqueous solution containing 2 M ammonium sulfate (pH 7.0), and the mobile phase B was a 100 mM phosphate aqueous solution (pH 7.0): isopropanol=80:20 (V/V). Samples of 50 μg and 10 μl were injected. The mobile phase A at the flow rate of 1 mL/min ran at 100% for 3 minutes. Within 3-25 minutes, the mobile phase B ran from […] to 100%, while the mobile phase B decreased to 0% at 25.1 and ran to 30 minutes. […] The naked antibody content of the antibody-drug conjugate was calculated using an area normalization method based on the retention time of a naked antibody peak located by the antibody of the antibody-drug conjugate.
# [3] = assay type: physicochemical; conditions: ADC with Her2 antibody, RP-HPLC-MS
# Description: (§2) A drug-antibody conjugating ratio (also known as drug-antibody ratio, abbreviated as DAR) of the antibody-drug conjugate was tested using reversed-phase high-performance liquid chromatography-mass chromatography (RP-HPLC-MS). The ADC sample was diluted with 50 mmol/L Tris buffer (pH 8.0) to 1 mg/ml. A fresh dithiothreitol (DTT) stock solution was added to achieve a final DTT concentration of 50 mmol/L. Incubation was performed at 37° C. for 30 minutes. A PLRP-S chromatographic column (1000 Å pores, 2.1×50 mm, 5) μm) was used, and the column temperature was 70° C. The flow rate was 0.25 mL/min. […] of sample was injected; the mobile phase A was an aqueous solution of 0.1% formic acid (V/V) and 0.025% trifluoroacetic acid (V/V), and the mobile phase B was an acetonitrile solution of 0.1% formic acid (V/V) and 0.025% trifluoroacetic acid (V/V); the running time was 0-3 minutes, where 27% of mobile phase B ran for 3 minutes, and the mobile phase B ran from 27% to 49% within 3-25 minutes, from 49% to 95% within 25-26 minutes, at 95% within […], from 95% to 27% within 30-31.5 minutes, and at 27% for 31.5-45 minutes. […] Mass spectrometry drying gas was at a temperature of 350° C. and a flow rate of 7.0 L/min, the pressure of an atomizer was 40 psi, capillary voltage was positive 3000V and negative 3000V, and the mass range was 500-1600 m/z. The molecular weight of each mass spectrometry peak (ranging from 20000 to 70000) was calculated by deconvolution and compared with light and heavy chain molecular weights of un-conjugated antibodies to calculate a drug load at each peak, so as to determine the load of a corresponding ultraviolet peak. Area percentages of heavy and light chain ultraviolet peaks were calculated through integration, and a weighted average DAR of the antibody-drug conjugate was calculated by combining the area percentages with the drug load distribution of each peak.
# [4] = Stability (placement) test of ADCs at 40° C. in dark for 14 days, DAR and polymer content; assay type: physicochemical
# Description: as §1, §2
# Stability testing method: The stability of the obtained ADCs was tested for 14 days. The ADCs were placed at 40° C. in dark. Sampling points were days 0, 7, and 14. The polymer content and DAR value of samples at different sampling points were tested according to the method in Experimental Example 1.
SMILES,Polymer content (%) [1] [%],Naked antibody content (%) [2] [%],DAR [3],"DAR ([4]; Day 0, 40° C. in dark)","Polymer content (%) ([4]; Day 0, 40° C. in dark)","DAR ([4]; Day 7, 40° C. in dark)","Polymer content (%) ([4]; Day 7, 40° C. in dark)","DAR ([4]; Day 14, 40° C. in dark)","Polymer content (%) ([4]; Day 14, 40° C. in dark)"
"C=C1C[C@@H]2CC[C@@]34C[C@H]5OC6C(O[C@H]7CC[C@H](CC(=O)C[C@@H]8[C@@H](OC)[C@@H](C[C@H](O)CNC(=O)CNC(=O)[C@H](Cc9ccccc9)NC(=O)CNC(=O)CNC(=O)CCOCCOCCN(CCOCCOCCC(=O)NCC(=O)NCC(=O)N[C@@H](Cc9ccccc9)C(=O)NCC(=O)NCOCC(=O)N[C@H]9CCc%10c(C)c(F)cc%11nc%12c(c9c%10%11)Cn9c-%12cc%10c(c9=O)COC(=O)[C@]%10(O)CC)C9CCC(NC(=O)CCCCCN%10C(=O)C=CC%10=O)CC9)O[C@H]8C[C@H]8O[C@@H](CC[C@@H]1O2)C[C@@H](C)C8=C)O[C@@H]7[C@@H]6O3)[C@H]5O4 (stereo partly drawn) [Comparative Example 9, reference compound]",70.65,57.78,0.91,–,–,–,–,–,–
"C=C1C[C@@H]2CC[C@@]34C[C@H]5OC6C(O[C@H]7CC[C@H](CC(=O)C[C@@H]8[C@@H](OC)[C@@H](C[C@H](O)CNC(=O)CNC(=O)[C@H](Cc9ccccc9)NC(=O)CNC(=O)CNC(=O)CCN9C(=O)C=CC9=O)O[C@H]8C[C@H]8O[C@@H](CC[C@@H]1O2)C[C@@H](C)C8=C)O[C@@H]7[C@@H]6O3)[C@H]5O4 [Comparative Example 12, reference compound]",13.18,7.00,2.67,–,–,–,–,–,–
"C=C1C[C@@H]2CC[C@@]34C[C@H]5OC6C(O[C@H]7CC[C@H](CC(=O)C[C@@H]8[C@@H](OC)[C@@H](C[C@H](O)CNC(=O)CNC(=O)[C@H](Cc9ccccc9)NC(=O)CNC(=O)CNC(=O)CCOCCOCCN(CCOCCOCCC(=O)NCC(=O)NCC(=O)N[C@@H](Cc9ccccc9)C(=O)NCC(=O)NCOCC(=O)N[C@H]9CCc%10c(C)c(F)cc%11nc%12c(c9c%10%11)Cn9c-%12cc%10c(c9=O)COC(=O)[C@]%10(O)CC)C9CCC(C(=O)CCOCCOCCN%10C(=O)C=CC%10=O)CC9)O[C@H]8C[C@H]8O[C@@H](CC[C@@H]1O2)C[C@@H](C)C8=C)O[C@@H]7[C@@H]6O3)[C@H]5O4 (stereo partly drawn) [Comparative Example 13, reference compound]",78.50,60.37,1.01,–,–,–,–,–,–
C=C1C[C@@H]2CC[C@@]34C[C@H]5OC6C(O[C@H]7CC[C@H](CC(=O)C[C@@H]8[C@@H](OC)[C@@H](C[C@H](O)CNC(=O)CNC(=O)[C@H](Cc9ccccc9)NC(=O)CNC(=O)CNC(=O)CCOCCOCCN(CCOCCOCCC(=O)NCC(=O)NCC(=O)N[C@@H](Cc9ccccc9)C(=O)NCC(=O)NCOCC(=O)N[C@H]9CCc%10c(C)c(F)cc%11nc%12c(c9c%10%11)Cn9c-%12cc%10c(c9=O)COC(=O)[C@]%10(O)CC)C(=O)CN9CCOCCOCCOCCOCCN(C(=O)CCCCCC%10C(=O)C=CC%10=O)CCOCCOCCOCCOCC9)O[C@H]8C[C@H]8O[C@@H](CC[C@@H]1O2)C[C@@H](C)C8=C)O[C@@H]7[C@@H]6O3)[C@H]5O4 [Example 14],0.59,4.97,3.82,3.82,0.59,3.83,0.63,3.84,0.72
